Test results published in US20180230469A1, “METHOD OF TREATING PAIN WITH AN ANTIBODY AGAINST NETRIN-4, UNC5B OR NEOGENIN” (OSAKA UNIVERSITY, priority 2013, published 2018).
“Also recorded” adds a separate entry of the source. Values belong to the molecule of their own block, whether it stands above or below them.

Assays:
SHP2 = molecular target: T1, SHP2 (Rattus norvegicus, UniProt P41499); experiment: von Frey filament test after intrathecal netrin-4 mixed with SHP inhibitor; format: in vivo; conditions: inhibitor 1 mM mixed with netrin-4 40 ng/μL, 10 μL intrathecal; for change in withdrawal threshold after administration of mixture with netrin-4: 12, 24 and 48 hours; for degree of reduction in withdrawal threshold at 24 hours after administration: vs netrin-4 alone
T1 construct: SHP2 is expressed in the neurons of the dorsal horn of the spinal cord; from tissue; host or cells: spinal cord of living rats (in vivo, intrathecal administration)
T1 sequence (P41499 1-593): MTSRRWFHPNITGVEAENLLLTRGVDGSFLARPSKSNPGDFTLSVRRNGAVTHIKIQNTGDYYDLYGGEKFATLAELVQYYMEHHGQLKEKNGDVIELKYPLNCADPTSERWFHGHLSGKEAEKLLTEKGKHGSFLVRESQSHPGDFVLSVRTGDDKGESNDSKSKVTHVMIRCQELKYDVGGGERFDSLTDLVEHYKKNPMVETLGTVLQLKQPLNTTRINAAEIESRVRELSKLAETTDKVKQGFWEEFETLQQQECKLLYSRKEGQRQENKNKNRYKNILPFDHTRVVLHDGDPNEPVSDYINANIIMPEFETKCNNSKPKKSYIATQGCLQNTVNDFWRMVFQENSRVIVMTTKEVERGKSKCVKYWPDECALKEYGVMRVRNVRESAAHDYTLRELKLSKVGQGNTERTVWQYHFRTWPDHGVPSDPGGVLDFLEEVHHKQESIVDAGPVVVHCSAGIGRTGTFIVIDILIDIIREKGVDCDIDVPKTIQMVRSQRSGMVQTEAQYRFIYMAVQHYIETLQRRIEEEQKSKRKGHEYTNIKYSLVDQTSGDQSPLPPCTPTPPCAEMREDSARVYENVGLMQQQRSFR
Protocol: (§1) The von Frey filament test was used to measure the response to mechanical stimuli. Before the test, a plastic case was set onto a metallic mesh, and the pain model rat was put into the plastic case and acclimated to the environment for 5 to 10 minutes until settled. A filament (Semmes-Weinstein Von Frey Anesthesiometer, Muromachi Kikai Co., Ltd.) was applied to the center of the plantar surface of the hindpaw for 3 to 5 seconds, and the threshold for hindpaw withdrawal (g) was measured. After the measurement of the withdrawal thresholds of both the paws was completed, the animal used was identified from the ear tag and then returned to a breeding cage.
(§2) A purified netrin-4 protein (R&D) was dissolved in physiological saline to give a 40 ng/μL netrin-4 solution. […] (Calbiochem), an inhibitor of SHPs, was dissolved at a concentration of 50 mM in sterilized water and kept refrigerated until use. The solution was diluted 50-fold with physiological saline before use. PTPi4 (bis(4-trifluoromethylsulfonamidophenyl)-1,4-diisopropylben zene, Protein Tyrosine Phosphatase Inhibitor IV, Calbiochem), an inhibitor of SHP2, was dissolved at a concentration of 16.4 mM in DMSO (dimethyl sulfoxide, Sigma-Aldrich) and kept refrigerated until use. The solution was diluted to a final concentration of 1 mM with physiological saline before use.
In order to clarify whether the activation of SHP2 is required for the action of netrin-4 on the potentiation of nociceptive response, it was examined whether intrathecal administration of a SHPs inhibitor, NSC87877, or a SHP2 inhibitor, PTPi4 (bis(4-trifluoromethylsulfonamidophenyl)-1,4-diisopropylben zene, Protein Tyrosine Phosphatase Inhibitor IV), would cancel the effect of intrathecal administration of netrin-4. NSC87877 (final concentration: 1 mM) or PTPi4 (final concentration: 1 mM) was mixed with netrin-4 (final concentration: 40 ng/μL , and 10 uL of the mixture was infused from the rear end of the polyethylene tube retained in the medullary cavity. The von Frey filament test was conducted at 12, 24 and 48 hours after the administration to examine the change in withdrawal threshold.

male Wistar rat = experiment: von Frey filament test after intrathecal administration of netrin-4 to rats; format: in vivo
Protocol: as §1, §2
In order to clarify the function of netrin-4 in the spinal cord in an in vivo setting, the change in nociceptive response after intrathecal administration of netrin-4 was examined. First, a polyethylene tube was inserted into the medullary cavity of an 8-week-old male Wistar rat. One week after the intubation, the von Frey filament test was conducted to confirm, the absence of intubation-caused motor dysfunction. Ten microliters of a netrin-4 solution (40 ng/μL) was infused from the rear end of the tube retained in the medullary cavity. Meanwhile, the same volume of physiological saline was administered to each animal of the control group. The von Frey filament test was conducted at 12, 24 and 48 hours after the administration to examine the change in withdrawal threshold.
Ten microliters of a netrin-4 solution (40 ng/μL), a 10% netrin-4 solution (4 ng/μL) , a 1% netrin-4 solution (0.4 ng/μL) or a thermally denatured netrin-4 solution (prepared by heat treatment of a netrin-4 solution (40 ng/μL) at 100° C. for 10 minutes) was administered in the same manner as in Experiment 1, and the degree of the change in withdrawal threshold from before to 24 hours after the administration was calculated.

[1] = tested on: glial cells or immune cells in the spinal cord; experiment: Immunostaining of Iba1, GFAP, CD3ε and CD45R in lumbar cord tissue after intrathecal netrin-4; format: in vivo, rat; conditions: lumbar cord tissue 48 hours after intrathecal administration, vs physiological saline
Protocol: (§3) Rat tissue fixation was performed by perfusion under deep anesthesia with intraperitoneal pentobarbital. For the fixation, 0.1 M phosphate buffer was perfused, followed by a 4% PFA solution (a solution of 4% paraformaldehyde (Nacalai Tesque) in 0.1 M phosphate buffer). After the perfusion-fixation, the lumbar enlargement of the spinal cord was dissected, immersed in a 4% PFA solution and further fixed for 6 hours. The 4% PFA solution was replaced with a solution of 30% sucrose (Nacalai Tesque) in 0.1 M phosphate buffer before incubation with agitation at 4° C. for two consecutive days. The lumbar cord tissue was embedded in OCT compound (Sakura Finetek Japan Co., Ltd.), frozen and sliced to a thickness of 20 μm with a cryostat, and the resulting section was mounted onto a slide glass (Matsunsmi Glass Ind., Ltd.). The specimen was immersed in a 5% BSA solution (a solution of 5% BSA (bovine serum albumin, Sigma-Aldrich) in 0.1 M phosphate buffer) at room temperature for 2 hours. The 5% BSA solution was replaced with a 5% BSA solution containing a primary antibody, and the reaction was allowed to proceed at 4° C. for two consecutive days. […] After washing with 0.1 M phosphate buffer 3 times, the specimen was coverslipped with a mounting medium and then observed under a fluorescence microscope. […]

[2] = tested on: neurons in the dorsal horn of the spinal cord (c-fos); experiment: Immunostaining of c-fos in lumbar cord tissue after intrathecal netrin-4; format: in vivo, rat; conditions: lumbar cord tissue 48 hours after intrathecal administration, vs physiological saline
Protocol: as §3

- degree of reduction in withdrawal threshold at 24 hours after administration (SHP2): significantly curbed
Molecule: O=S(=O)(O)c1ccc2cc(N=Nc3cc(S(=O)(=O)O)c4cccnc4c3O)ccc2c1 [NSC87877]
- change in withdrawal threshold after administration of mixture with netrin-4 (SHP2): reduction in withdrawal threshold was observed in the group of administration of netrin-4 alone, but not

- degree of reduction in withdrawal threshold at 24 hours after administration (SHP2): significantly curbed
Molecule: CC(C)(c1ccc(NS(=O)(=O)C(F)(F)F)cc1)c1ccc(C(C)(C)c2ccc(NS(=O)(=O)C(F)(F)F)cc2)cc1 [PTPi4, bis(4-trifluoromethylsulfonamidophenyl)-1,4-diisopropylben zene]
- change in withdrawal threshold after administration of mixture with netrin-4 (SHP2): reduction in withdrawal threshold was observed in the group of administration of netrin-4 alone, but not

B1: netrin-4: purified netrin-4 protein (R&D) dissolved in physiological saline (protein, UniProt Q9HB63 19-628, looked up)
Netrin-4: GLSGVAGVSSRCEKACNPRMGNLALGRKLWADTTCGQNATELYCFYSENTDLTCRQPKCDKCNAAYPHLAHLPSAMADSSFRFPRTWWQSAEDVHREKIQLDLEAEFYFTHLIVMFKSPRPAAMVLDRSQDFGKTWKPYKYFATNCSATFGLEDDVVKKGAICTSKYSSPFPCTGGEVIFKALSPPYDTENPYSAKVQEQLKITNLRVQLLKRQSCPCQRNDLNEEPQHFTHYAIYDFIVKGSCFCNGHADQCIPVHGFRPVKAPGTFHMVHGKCMCKHNTAGSHCQHCAPLYNDRPWEAADGKTGAPNECRTCKCNGHADTCHFDVNVWEASGNRSGGVCDDCQHNTEGQYCQRCKPGFYRDLRRPFSAPDACKPCSCHPVGSAVLPANSVTFCDPSNGDCPCKPGVAGRRCDRCMVGYWGFGDYGCRPCDCAGSCDPITGDCISSHTDIDWYHEVPDFRPVHNKSEPAWEWEDAQGFSALLHSGKCECKEQTLGNAKAFCGMKYSYVLKIKILSAHDKGTHVEVNVKIKKVLKSTKLKIFRGKRTLYPESWTDRGCTCPILNPGLEYLVAGHEDIRTGKLIVNMKSFVQHWKPSLGRKVMDILKRECK
- change in withdrawal threshold (von Frey filament test) (male Wistar rat; intrathecal 10 μL of 40 ng/μL, 12, 24 and 48 hours after administration): significant reduction in the netrin-4-administered rats versus the control group at 12, 24 and 48 hours after the administration; also recorded: reduction in withdrawal threshold was observed
- degree of change in withdrawal threshold from before to 24 hours after administration (male Wistar rat; intrathecal 10 μL of 1% netrin-4 solution (0.4 ng/μL)): no significant reduction was observed
- degree of change in withdrawal threshold from before to 24 hours after administration (male Wistar rat; intrathecal 10 μL of 10% netrin-4 solution (4 ng/μL)): reduction in withdrawal threshold was observed
- cell morphology and spinal distribution of Iba1, GFAP, CD3ε and CD45R positive cells [1]: No remarkable difference
- number of c-fos-positive cells in the dorsal horn of the spinal cord [2]: increased as compared with that in the control group

B2: thermally denatured netrin-4: netrin-4 solution (40 ng/μL) heat-treated at 100° C. for 10 minutes (protein, UniProt Q9HB63 19-628, looked up)
Netrin-4: B1 Netrin-4
modifications: heat-denatured
notes: netrin-4 solution (40 ng/μL) heat-treated at 100° C. for 10 minutes
- degree of change in withdrawal threshold from before to 24 hours after administration (male Wistar rat; intrathecal 10 μL of 40 ng/μL solution heat-treated at 100° C. for 10 minutes): did not reduce the withdrawal threshold
